Assay results as given in patent US20110098217A1 (INDIANA UNIVERSITY RESEARCH AND TECHNOLOGY, published 2011).
Numbered stars: 1 amine (or outer) side, 2 acyl side, 3 side chain; on linkers, the order of the positions; unused ones are H or OH. Bridge positions count the residues as written; N and C are the ends. Square brackets hold non-standard residues; d marks the D form. Primed or numbered codes have the meaning given here. Side chains are listed from the residue outwards. Ends that are not written are not given here. CSA‑2 = Cys(S-CH2CH2COOH), S-(2-carboxyethyl)-L-cysteine, O=C([C@H](CSCCC(=O)[*:3])N[*:1])[*:2]; CSA‑1 = Cys(S-CH2COOH), S-carboxymethyl-L-cysteine, O=C([C@H](CSCC(=O)[*:3])N[*:1])[*:2]; Glu = Glu spacer between Lys side chain and the C16 fatty acid (EC16FA); PEG 20 kDa″ = 20 kDa polyethylene glycol (PEG); PEG 20 kDa = 20 kDa polyethylene glycol; PhLac = O=C(O)[C@@H](O)Cc1ccccc1; Aad = N[C@@H](CCCC(=O)O)C(=O)O; Mpa = O=C(O)CCS

B1: [(CSA-1)^9]Glucagon(aa6-29)-NH2 (peptide)
peptide: FTS[CSA‑1]YSKYLDSRRAQDFVQWLMNT-NH2
modifications: N-terminus assumed
SMILES: CSCC[C@H](NC(=O)[C@H](CC(C)C)NC(=O)[C@H](Cc1c[nH]c2ccccc12)NC(=O)[C@H](CCC(N)=O)NC(=O)[C@@H](NC(=O)[C@H](Cc1ccccc1)NC(=O)[C@H](CC(=O)O)NC(=O)[C@H](CCC(N)=O)NC(=O)[C@H](C)NC(=O)[C@H](CCCNC(=N)N)NC(=O)[C@H](CCCNC(=N)N)NC(=O)[C@H](CO)NC(=O)[C@H](CC(=O)O)NC(=O)[C@H](CC(C)C)NC(=O)[C@H](Cc1ccc(O)cc1)NC(=O)[C@H](CCCCN)NC(=O)[C@H](CO)NC(=O)[C@H](Cc1ccc(O)cc1)NC(=O)[C@H](CSCC(=O)O)NC(=O)[C@H](CO)NC(=O)[C@@H](NC(=O)[C@@H](N)Cc1ccccc1)[C@@H](C)O)C(C)C)C(=O)N[C@@H](CC(N)=O)C(=O)N[C@H](C(N)=O)[C@@H](C)O
notes: also called [C^9(SCH2COOH)]Glucagon(aa6-29)-NH2; peptide no; 13
B2: [Lys^9]Glucagon(aa6-29)-NH2 (peptide)
peptide: FTSKYSKYLDSRRAQDFVQWLMNT-NH2
notes: also called [K^9]Glucagon(aa6-29)-NH2; peptide no; 16
B3: [hGlu^9]Glucagon(aa6-29)-NH2 (peptide)
peptide: FTS[Aad]YSKYLDSRRAQDFVQWLMNT-NH2
modifications: N-terminus assumed
SMILES: CSCC[C@H](NC(=O)[C@H](CC(C)C)NC(=O)[C@H](Cc1c[nH]c2ccccc12)NC(=O)[C@H](CCC(N)=O)NC(=O)[C@@H](NC(=O)[C@H](Cc1ccccc1)NC(=O)[C@H](CC(=O)O)NC(=O)[C@H](CCC(N)=O)NC(=O)[C@H](C)NC(=O)[C@H](CCCNC(=N)N)NC(=O)[C@H](CCCNC(=N)N)NC(=O)[C@H](CO)NC(=O)[C@H](CC(=O)O)NC(=O)[C@H](CC(C)C)NC(=O)[C@H](Cc1ccc(O)cc1)NC(=O)[C@H](CCCCN)NC(=O)[C@H](CO)NC(=O)[C@H](Cc1ccc(O)cc1)NC(=O)[C@H](CCCC(=O)O)NC(=O)[C@H](CO)NC(=O)[C@@H](NC(=O)[C@@H](N)Cc1ccccc1)[C@@H](C)O)C(C)C)C(=O)N[C@@H](CC(N)=O)C(=O)N[C@H](C(N)=O)[C@@H](C)O
notes: also called [hE^9]Glucagon(aa6-29)-NH2; peptide no; 12
B4: [(CSA-2)^9]Glucagon(aa6-29)-NH2 (peptide)
peptide: FTS[CSA‑2]YSKYLDSRRAQDFVQWLMNT-NH2
modifications: N-terminus assumed
SMILES: CSCC[C@H](NC(=O)[C@H](CC(C)C)NC(=O)[C@H](Cc1c[nH]c2ccccc12)NC(=O)[C@H](CCC(N)=O)NC(=O)[C@@H](NC(=O)[C@H](Cc1ccccc1)NC(=O)[C@H](CC(=O)O)NC(=O)[C@H](CCC(N)=O)NC(=O)[C@H](C)NC(=O)[C@H](CCCNC(=N)N)NC(=O)[C@H](CCCNC(=N)N)NC(=O)[C@H](CO)NC(=O)[C@H](CC(=O)O)NC(=O)[C@H](CC(C)C)NC(=O)[C@H](Cc1ccc(O)cc1)NC(=O)[C@H](CCCCN)NC(=O)[C@H](CO)NC(=O)[C@H](Cc1ccc(O)cc1)NC(=O)[C@H](CSCCC(=O)O)NC(=O)[C@H](CO)NC(=O)[C@@H](NC(=O)[C@@H](N)Cc1ccccc1)[C@@H](C)O)C(C)C)C(=O)N[C@@H](CC(N)=O)C(=O)N[C@H](C(N)=O)[C@@H](C)O
notes: also called [C^9(SCH2CH2COOH)]Glucagon (aa6-29)-NH2; peptide no; 14

biological target: T1, human glucagon receptor (human, UniProt P47871 26-477); assay: cell-based or functional assay
T1 sequence (P47871 26-477): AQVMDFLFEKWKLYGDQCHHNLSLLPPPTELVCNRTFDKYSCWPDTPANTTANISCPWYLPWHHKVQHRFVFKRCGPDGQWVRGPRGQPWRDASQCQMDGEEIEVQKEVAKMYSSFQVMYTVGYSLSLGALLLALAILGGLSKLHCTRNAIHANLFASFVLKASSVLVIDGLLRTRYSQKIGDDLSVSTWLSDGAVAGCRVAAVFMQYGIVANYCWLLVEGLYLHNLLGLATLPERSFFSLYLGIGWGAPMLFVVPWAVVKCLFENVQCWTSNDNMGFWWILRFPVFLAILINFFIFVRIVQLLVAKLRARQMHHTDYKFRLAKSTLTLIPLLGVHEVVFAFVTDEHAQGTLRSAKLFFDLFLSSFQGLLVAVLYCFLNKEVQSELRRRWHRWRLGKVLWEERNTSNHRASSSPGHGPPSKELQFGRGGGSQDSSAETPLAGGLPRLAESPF

Row | Binder | Glucagon antagonism IC50 (inhibit 0.2-0.8 nM glucagon) [nM]
1 | [PhLac]TSDYSKYLDERRAKDFVQWLMDTGPSSGAPPPSC(PEG 20 kDa″)-NH2 (lactam 11-15) [[PLA6, E16K20(Lactam), D28,CEX-C40(20 kDa)]G(6-40)] | 350 to 500
2 | [PhLac]TSDYSKYLDERRAKDFVK([Mpa-PEG 20 kDa″])WLMDT-NH2 (lactam 11-15) [[PLA6, E16K20(Lactam), K24(COCH2CH2S-20 kDa)] G(6-29)] | 300 to 400
3 | [PhLac]TSDYSKYLDERRAKDFVQWLMDGGPSSGAPPPSC(PEG 20 kDa″)-NH2 (lactam 11-15) [[PLA6, E16K20(Lactam),D28,G29, CEX-C40(20 kDa)]G(6-40)] | 335
4 | [PhLac]TSDYSKYLDERRAQDFVC(PEG 20 kDa)WLMDT-NH2 (lactam 7-11) [[PLA6, K12E16(lactam), C24(20 kDa), D28]G(6-29)] | 628
5 | [PhLac]TSDYSKYLDERRAKDFVK([3‑aminoprop‑1‑ynyl‑benzoic acid-Mpa-PEG 20 kDa])WLMDT-NH2 (lactam 11-15) [[PLA6,E16K20(Lactam), K24(rigid-S-20 kDa)]G(6-29)] | 393 to 620
6 | [PhLac]TSDYSKYLDERRAKDFVQWLMDTGPGPGPGPGPC(PEG 20 kDa″)-NH2 (lactam 11-15) [[PLA6, E16K20(Lactam),D28,GP-C40(20 kDa)]G(6-40)] | 423

biological target: T2, human GLP-1 receptor (human, UniProt P43220 24-463); assay: cell-based or functional assay

Row | Binder | GLP-1 agonism EC50 [nM]
7 | [PhLac]TSDYSKYLDERRAKDFVQWLMDTGPSSGAPPPSC(PEG 20 kDa″)-NH2 (lactam 11-15) [[PLA6, E16K20(Lactam), D28,CEX-C40(20 kDa)]G(6-40)] | 75 to 100
8 | [PhLac]TSDYSKYLDERRAKDFVK([Mpa-PEG 20 kDa″])WLMDT-NH2 (lactam 11-15) [[PLA6, E16K20(Lactam), K24(COCH2CH2S-20 kDa)] G(6-29)] | 16 to 20
9 | [PhLac]TSDYSKYLDERRAKDFVQWLMDGGPSSGAPPPSC(PEG 20 kDa″)-NH2 (lactam 11-15) [[PLA6, E16K20(Lactam),D28,G29, CEX-C40(20 kDa)]G(6-40)] | 180
10 | [PhLac]TSDYSKYLDERRAQDFVC(PEG 20 kDa)WLMDT-NH2 (lactam 7-11) [[PLA6, K12E16(lactam), C24(20 kDa), D28]G(6-29)] | 550 to 753
11 | [PhLac]TSDYSKYLDERRAKDFVK([3‑aminoprop‑1‑ynyl‑benzoic acid-Mpa-PEG 20 kDa])WLMDT-NH2 (lactam 11-15) [[PLA6,E16K20(Lactam), K24(rigid-S-20 kDa)]G(6-29)] | 1360 to 2680
12 | [PhLac]TSDYSKYLDERRAKDFVQWLMDTGPGPGPGPGPC(PEG 20 kDa″)-NH2 (lactam 11-15) [[PLA6, E16K20(Lactam),D28,GP-C40(20 kDa)]G(6-40)] | 43.6

biological target: T1, human glucagon receptor; assay: SPA competition vs 125I-glucagon, receptor membranes

Row | Binder | IC50 [nM]
13 | B1 | 107
14 | FTSDYSKYLDSRRAQDFVQWLMNT-NH2 (also called peptide no; 15) [Glucagon(aa6-29)-NH2] | 1670
15 | B2 | 3240
16 | B3 | 163
17 | B4 | 146

biological target: T1, human glucagon receptor; assay: cell-based or functional assay; remark: another data set of the same source

Row | Binder | Glucagon antagonism IC50 (inhibit 0.4 nM glucagon) [nM]
18 | [PhLac]TSDYSKYLDERRAKDFVK([Glu-C16 fatty acid])WLMDT-NH2 (lactam 11-15) [[PLA6, E16K20(lactam), K24(EC16FA), D28]G(6-29)] | 372
19 | [PhLac]TSDYSKYLDERRAK([Glu-C16 fatty acid])DFVQWLMDT-NH2 [[PLA6, E16, K20(EC16FA), D28]G(6-29)] | 576
20 | [PhLac]TSDYSKYLDERRAKDFVQWLMDK([Glu-C16 fatty acid])-NH2 (lactam 11-15) [[PLA6, E16K20(lactam), D28, K29(EC16FA)]G(6-29)] | 386
21 | [PhLac]TSDK([Glu-C16 fatty acid])SKYLDERRAKDFVQWLMDT-NH2 (lactam 11-15) [[PLA6, K10(EC16FA), E16K20(lactam),D28]G(6-29)] | 31.1
22 | [PhLac](C16 fatty acid)TSDYSKYLDERRAKDFVQWLMDT-NH2 (lactam 11-15) [[C16FA-O-PLA6, E16K20(lactam),D28]G(6-29)] | 338
23 | [PhLac]TSDK([Glu-C16 fatty acid])SKYLDERRAKDFVQWLMDT-NH2 [[PLA6, K10(EC16FA), E16, K20,D28]G(6-29)] | 222

biological target: T2, human GLP-1 receptor; assay: cell-based or functional assay; remark: another data set of the same source

Row | Binder | GLP-1 agonism EC50 [nM]
24 | [PhLac]TSDYSKYLDERRAKDFVK([Glu-C16 fatty acid])WLMDT-NH2 (lactam 11-15) [[PLA6, E16K20(lactam), K24(EC16FA), D28]G(6-29)] | 293
25 | [PhLac]TSDYSKYLDERRAK([Glu-C16 fatty acid])DFVQWLMDT-NH2 [[PLA6, E16, K20(EC16FA), D28]G(6-29)] | 1290
26 | [PhLac]TSDYSKYLDERRAKDFVQWLMDK([Glu-C16 fatty acid])-NH2 (lactam 11-15) [[PLA6, E16K20(lactam), D28, K29(EC16FA)]G(6-29)] | 1410
27 | [PhLac]TSDK([Glu-C16 fatty acid])SKYLDERRAKDFVQWLMDT-NH2 (lactam 11-15) [[PLA6, K10(EC16FA), E16K20(lactam),D28]G(6-29)] | 129
28 | [PhLac](C16 fatty acid)TSDYSKYLDERRAKDFVQWLMDT-NH2 (lactam 11-15) [[C16FA-O-PLA6, E16K20(lactam),D28]G(6-29)] | 45.7
29 | [PhLac]TSDK([Glu-C16 fatty acid])SKYLDERRAKDFVQWLMDT-NH2 [[PLA6, K10(EC16FA), E16, K20,D28]G(6-29)] | 105

biological target: T1, human glucagon receptor; assay: cell-based or functional assay; remark: another data set of the same source

Row | Binder | cAMP IC50 [nM] | cAMP pA2
30 | B1 | 101 | 6.68
31 | FTSDYSKYLDSRRAQDFVQWLMNT-NH2 (also called peptide no; 15) [Glucagon(aa6-29)-NH2] | 346 | 6.94
32 | B2 | 398 | 6.58
33 | B3 | 472 | 6.27
34 | B4 | 116 | 6.64

biological target: T1, human glucagon receptor; assay: SPA competition vs 125I-glucagon, receptor membranes; remark: another data set of the same source

Row | Binder | IC50 [nM]
35 | B1 | 107
36 | FTSDYSKYLDSRRAQDFVQWLMNT-NH2 (also called peptide no; 15) [Glucagon(aa6-29)-NH2] | 1890
37 | B2 | 5780
38 | B3 | 163
39 | LTFTSEYSKYLDSRRAQDFVQWLMNT-NH2 (also called peptide no) [[Leu^4, Glu^9]Glucagon(aa4-29)-NH2] | 36.4
40 | B4 | 146

biological target: T1, human glucagon receptor; assay: cell-based or functional assay; remark: another data set of the same source

Row | Binder | cAMP (I/A)50 inhibition index | cAMP pA2
41 | B1 | 506 | 6.68
42 | FTSDYSKYLDSRRAQDFVQWLMNT-NH2 (also called peptide no; 15) [Glucagon(aa6-29)-NH2] | 1730 | 6.94
43 | B2 | 1990 | 6.58
44 | B3 | 2360 | 6.27
45 | B4 | 580 | 6.64

biological target: T1, human glucagon receptor; assay: cell-based or functional assay; remark: another data set of the same source

Row | Binder | Glucagon antagonism IC50 (inhibit 0.8 nM glucagon) [nM]
46 | [PhLac]TSEYSKYLDSRRAQDFVQWLMNT-NH2 (lactam 4-7) [[PLA6, E9K12(Lactam)] G(6-29)] | 72.5
47 | SQGTFTSEYSKYLDERRAKDFVQWLMDT-NH2 (lactam 15-19) [[S2Q3, E9, E16K20(Lactam), D28] G(2-29)] | 23.4

biological target: T2, human GLP-1 receptor; assay: cell-based or functional assay; remark: another data set of the same source

Row | Binder | GLP-1 agonism EC50 [nM]
48 | [PhLac]TSEYSKYLDSRRAQDFVQWLMNT-NH2 (lactam 4-7) [[PLA6, E9K12(Lactam)] G(6-29)] | 144
49 | SQGTFTSEYSKYLDERRAKDFVQWLMDT-NH2 (lactam 15-19) [[S2Q3, E9, E16K20(Lactam), D28] G(2-29)] | 284
